Series [1] has as its target T1, APP (Homo sapiens, UniProt P05067). The series can be described thus: APP protein stability assay with cycloheximide (CHX) in HEK293 cells. The following applies: HEK293 co-transfected with APP plasmid plus P2 or BSA; CHX for one hour. The series is classed as cell-based. On the set-up: expressed in transfected cells; host or cells: HEK293.
Target sequence in this assay (P05067 18-695 isoform P05067-4 limits assumed): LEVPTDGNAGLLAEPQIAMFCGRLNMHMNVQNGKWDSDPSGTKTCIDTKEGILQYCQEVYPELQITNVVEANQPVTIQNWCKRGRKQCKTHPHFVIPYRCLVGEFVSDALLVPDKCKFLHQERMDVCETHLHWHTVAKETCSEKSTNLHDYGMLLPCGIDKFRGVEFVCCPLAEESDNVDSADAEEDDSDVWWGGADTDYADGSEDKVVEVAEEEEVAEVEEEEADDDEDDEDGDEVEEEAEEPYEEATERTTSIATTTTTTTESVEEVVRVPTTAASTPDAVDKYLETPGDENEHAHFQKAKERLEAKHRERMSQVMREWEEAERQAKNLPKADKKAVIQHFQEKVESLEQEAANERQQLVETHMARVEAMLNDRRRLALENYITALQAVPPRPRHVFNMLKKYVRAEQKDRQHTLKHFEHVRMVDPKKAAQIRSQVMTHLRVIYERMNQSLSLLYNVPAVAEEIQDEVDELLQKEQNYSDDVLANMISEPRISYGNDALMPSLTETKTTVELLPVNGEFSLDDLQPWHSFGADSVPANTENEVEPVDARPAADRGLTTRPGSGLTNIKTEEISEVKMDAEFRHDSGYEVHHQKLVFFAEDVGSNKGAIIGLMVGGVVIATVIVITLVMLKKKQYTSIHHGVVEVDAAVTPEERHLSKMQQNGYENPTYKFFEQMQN
In series [2] the target is T1, APP. Kind of series: APP expression in HEK293 cells with P2 peptide (Western blot). The series is classed as cell-based. Details: expressed in transfected cells; host or cells: HEK293. A general note: In western blotting, separated proteins are transferred to a membrane and probed.
Target sequence in this assay (P05067 18-695 isoform P05067-4 limits assumed): as above
Series [3] has as its target T1, APP. The series can be described thus: P2 effect on APP processing and amyloid formation (Western blot, immunofluorescence). The series is classed as cell-based.
Target sequence in this assay (P05067 18-770, species assumed): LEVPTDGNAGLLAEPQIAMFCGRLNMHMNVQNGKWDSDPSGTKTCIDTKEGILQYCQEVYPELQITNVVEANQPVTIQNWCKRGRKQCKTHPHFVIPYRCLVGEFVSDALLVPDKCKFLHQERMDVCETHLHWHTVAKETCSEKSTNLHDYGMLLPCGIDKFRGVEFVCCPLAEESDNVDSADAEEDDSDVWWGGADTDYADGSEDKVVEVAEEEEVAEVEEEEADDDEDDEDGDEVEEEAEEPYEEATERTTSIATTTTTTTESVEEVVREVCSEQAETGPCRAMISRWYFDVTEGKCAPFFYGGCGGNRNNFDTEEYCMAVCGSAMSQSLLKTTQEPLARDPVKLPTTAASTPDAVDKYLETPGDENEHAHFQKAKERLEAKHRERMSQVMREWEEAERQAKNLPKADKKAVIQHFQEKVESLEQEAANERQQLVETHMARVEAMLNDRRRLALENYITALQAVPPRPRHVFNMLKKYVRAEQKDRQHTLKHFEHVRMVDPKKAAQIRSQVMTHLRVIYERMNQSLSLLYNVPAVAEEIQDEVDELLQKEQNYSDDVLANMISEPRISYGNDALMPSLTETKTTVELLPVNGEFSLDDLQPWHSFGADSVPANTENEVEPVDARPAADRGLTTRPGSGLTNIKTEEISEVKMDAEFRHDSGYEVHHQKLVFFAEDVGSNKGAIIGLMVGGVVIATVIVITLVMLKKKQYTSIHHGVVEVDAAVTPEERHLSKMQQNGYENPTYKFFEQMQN
Series [4] can be described thus: Water solubility of the peptide. The series is classed as physicochemical.
Series [5] has as its target T2, Epstein-Barr virus latent membrane protein 1 (LMP1) (Epstein-Barr virus, UniProt P03230).
T2 construct: expressed in transfected cells; host or cells: HEK293
Kind of series: LMP1 expression in HEK293 cells co-transfected with P2 peptide (specificity control). The series is classed as cell-based. The conditions noted are these: HEK293 co-transfected with LMP1 expression plasmid and P2 peptide with PULSin. From the text: FIGS. 6A-6B: FIG. 6A. HEK293 cells were transfected with EBV LMP1 expression plasmid or vector control (pcDNA3). One day later, the cells were infected with or without ZIKV overnight as in FIG. 2a. Western blots were used for detection of LMP1 and tubulin simultaneously. The images in the same box indicate they were derived from the same gels. The identity of the proteins is as shown. FIG. 6B. HEK293 cells were co-transfected with different amounts of LMP1 expression plasmid and P2 peptide, or BSA protein ([…]) with PULSin reagents. One day later, the expression of APP and tubulin were examined simultaneously by Western Blot analyses. The identity of the proteins is as shown.
We suspected that the loop in the specific structure of ZIKV E protein was responsible for the potential interaction with APP (FIGS. 1A and 1B). A peptide (P2) derived from the potential binding site, the β-hairpin region, was synthesized with sequence optimization (FIG. 1C). Located in the core region of the ZIKV E protein and being hydrophobic, the eight amino acid stretch, EYRIMLSV, in the β-hairpin region of E protein was not included in the P2 sequence. Furthermore, the P2 peptide could potentially form a similar structure as in the native protein by including extra amino acids in the C-terminus (FIGS. 1B and 1C). […]

T2 sequence (P03230 whole entry): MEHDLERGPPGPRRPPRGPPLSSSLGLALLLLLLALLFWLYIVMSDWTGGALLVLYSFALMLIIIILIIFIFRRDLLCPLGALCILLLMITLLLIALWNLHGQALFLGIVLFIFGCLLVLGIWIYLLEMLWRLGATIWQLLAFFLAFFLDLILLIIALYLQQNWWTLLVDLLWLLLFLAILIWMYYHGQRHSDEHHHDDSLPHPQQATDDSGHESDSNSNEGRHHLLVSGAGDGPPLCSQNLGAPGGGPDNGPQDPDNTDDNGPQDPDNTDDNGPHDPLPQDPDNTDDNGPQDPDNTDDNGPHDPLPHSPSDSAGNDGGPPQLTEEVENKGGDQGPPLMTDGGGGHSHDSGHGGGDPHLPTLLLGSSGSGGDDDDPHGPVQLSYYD

As for “HGSQHSGMIVNDTGHETDENRAKVEITPNSPRAEATLGGFGSLGL (listed as Zika virus) [P2, peptide derived from the β-hairpin region of ZIKV E protein, without EYRIMLSV stretch]”, the “mechanism of APP enhancement (APP protein stability)” value with APP [1] is recorded as “a similar mechanism to ZIKV was established”. In addition, the APP expression entry with APP [2] (HEK293 co-transfected with APP695 plasmid (0.5 μg) and P2 peptide (1 μg) with PULSin, compared with BSA control, one day later) is “could increase the expression of APP”. The APP expression entry with APP [2] (treating cells directly with peptide (data not shown)) was “could not enhance APP expression”. Also, in the series with APP [3] (Example 4, FIG. 13), the APP metabolic processing result is listed as “block APP metabolic processing” and the “interaction with APP” value is given as “interacts with APP”. Also, the amyloid formation entry with APP [3] (Western blot (FIG. 13A) and immunofluorescence (FIG. 13B)) is recorded as “reduces amyloid formation”. In addition, the water solubility entry in series [4] is reported as “water-soluble”. Besides, in series [5], the LMP1 expression result is given as “could not be enhanced”.

The values above are taken from patent publication US12364734B2, “Methods of treating Alzheimers disease” (NUtech Ventures, priority 2020, dated 2025).
